# Test results: paper PMC6906086
# B1: GC-rich fragment (leuS MUT sequence), anisotropy (dsDNA)
# DNA 1: AACTCGGCGAGGTCGGTCAG
# DNA 2: CTGACCGACCTCGCCGAGTT
# B2: leuS MUT (dsDNA)
# DNA 1: AACTCGGCGAGGTCGGTCAG
# DNA 2: CTGACCGACCTCGCCGAGTT
# B3: AT-rich 14-mer (dsDNA)
# DNA 1: CGCGCATATATGCG
# DNA 2: CGCATATATGCGCG
# Legend:
# Lsr2BD WT = Lsr2BD WT (Mycobacterium tuberculosis H37Rv, UniProt P9WIP7 66-112); assay: fluorescence anisotropy; settings: protein: recombinant; tags: 6xHis; blunt
# Lsr2BD T112D = Lsr2BD T112D (Mycobacterium tuberculosis H37Rv, UniProt P9WIP7 66-112, T112D); assay: fluorescence anisotropy; settings: protein: recombinant, blunt
# Lsr2 = Lsr2 (Mycobacterium tuberculosis H37Rv, UniProt P9WIP7 1-112); assay: EMSA; 0.95-7.6 uM Lsr2; settings: protein: recombinant; (pET15-TEV, Ni-NTA); chain copies: 2; blunt
# Lsr2BD T112A = Lsr2BD T112A (Mycobacterium tuberculosis H37Rv, UniProt P9WIP7 66-112, T112A); assay: fluorescence anisotropy; pH 7.5; 4 nM DNA; settings: protein: recombinant; label: 5' Alexa Fluor 488; blunt
binder,measurement,setting,value
B1,binding result,Lsr2BD WT,no binding
same,binding result,Lsr2BD T112D,no binding
B2,binding result,Lsr2,binds
B3,binding result,Lsr2BD T112D; label: 5' Alexa Fluor 488,no binding
same,Kd,Lsr2BD T112A,20 ± 8 nM
